Assay results published in FireProtDB (doi:10.1021/bi00458a027).
Where “and” joins values, the source holds several entries; their conditions need not be identical. Equal entries are not always repeated.

B1: Tryptophan synthase alpha chain, P0A877 (parent)
chain: MERYESLFAQLKERKEGAFVPFVTLGDPGIEQSLKIIDTLIEAGADALELGIPFSDPLADGPTIQNATLRAFAAGVTPAQCFEMLALIRQKHPTIPIGLLMYANLVFNKGIDEFYAQCEKVGVDSVLVADVPVEESAPFRQAALRHNVAPIFICPPNADDDLLRQIASYGRGYTYLLSRAGVTGAENRAALPLNHLVAKLKEYNAAPPLQGFGISAPDQVKAAIDAGAAGAISGSAIVKIIEQHINEPEKMLAALKVFVQPMKAATRS

Variants of: B1
Details: Escherichia coli (strain K12), pH 7.8, Urea, CD, Potassium phosphate 10 mM, structure 1WQ5, whole UniProt chain shown

Variant	denaturant m value (4 °C)	denaturant midpoint (higher = more stable) (4 °C)	ddG of mutation (higher = less stable) (25 °C)	denaturant m value (25 °C)	denaturant midpoint (higher = more stable) (25 °C)	unfolding free energy (25 °C)
MERYESLFAQLKERKEGAFVPFVTLGDPGIEQSLKIIDTLIEAGADALELGIPFSDPLADGPTIQNATLRAFAAGVTPAQCFEMLALIRQKHPTIPIGLLMYANLVFNKGIDEFYAQCEKVGVDSVLVADVPVEESAPFRQAALRHNVAPIFICPPNADDDLLRQIASYGRGYTYLLSRAGVTGAENRAALPLNHLVAKLKEYNAAPPLQRFGISAPDQVKAAIDAGAAGAISGSAIVKIIEQHINEPEKMLAALKVFVQPMKAATRS [G211R]	1.6 kcal/mol/M and 2.2 kcal/mol/M	1.4 M and 3.28 M	–	–	–	–
MERYESLFAQLKERKEGAFVPFVTLGDPGIEQSLKIIDTLIEAGADALELGIPFSDPLADGPTIQNATLRAFAAGVTPAQCFEMLALIRQKHPTIPIGLLMYANLVFNKGIDEFYAQCEKVGVDSVLVADVPVEESAPFRQAALRHNVAPIFICPPNADDDLLRQIASYGRGYTYLLSRAGVTGAENRAALPLNHLVAKLKEYNAAPPLQDFGISAPDQVKAAIDAGAAGAISGSAIVKIIEQHINEPEKMLAALKVFVQPMKAATRS [G211D]	–	–	0.3 kcal/mol and 0.8 kcal/mol	2 kcal/mol/M and 1.2 kcal/mol/M	2.7 M and 3.61 M	5.4 kcal/mol and 4.2 kcal/mol
MERYESLFAQLKERKEGAFVPFVTLGDPGIEQSLKIIDTLIEAGADALELGIPFSDPLADGPTIQNATLRAFAAGVTPAQCFEMLALIRQKHPTIPIGLLMYANLVFNKGIDEFYAQCEKVGVDSVLVADVPVEESAPFRQAALRHNVAPIFICPPNADDDLLRQIASYGRGYTYLLSRAGVTGAENRAALPLNHLVAKLKEYNAAPPLQSFGISAPDQVKAAIDAGAAGAISGSAIVKIIEQHINEPEKMLAALKVFVQPMKAATRS [G211S]	–	–	-0.2 kcal/mol	2.4 kcal/mol/M and 1.3 kcal/mol/M	2.46 M and 3.97 M	5.9 kcal/mol and 5.2 kcal/mol
MERYESLFAQLKERKEGAFVPFVTLGDPGIEQSLKIIDTLIEAGADALELGIPFSDPLADGPTIQNATLRAFAAGVTPAQCFEMLALIRQKHPTIPIGLLMYANLVFNKGIDEFYAQCEKVGVDSVLVADVPVEESAPFRQAALRHNVAPIFICPPNADDDLLRQIASYGRGYTYLLSRAGVTGAENRAALPLNHLVAKLKEYNAAPPLQWFGISAPDQVKAAIDAGAAGAISGSAIVKIIEQHINEPEKMLAALKVFVQPMKAATRS [G211W]	–	–	1.6 kcal/mol and 1.1 kcal/mol	1.8 kcal/mol/M and 1.1 kcal/mol/M	2.25 M and 3.62 M	4.1 kcal/mol and 3.9 kcal/mol
MERYESLFAQLKERKEGAFVPFVTLGDPGIEQSLKIIDTLIEAGADALELGIPFSDPLADGPTIQNATLRAFAAGVTPAQCFEMLALIRQKHPTIPIGLLMYANLVFNKGIDEFYAQCEKVGVDSVLVADVPVEESAPFRQAALRHNVAPIFICPPNADDDLLRQIASYGRGYTYLLSRAGVTGAENRAALPLNHLVAKLKEYNAAPPLQEFGISAPDQVKAAIDAGAAGAISGSAIVKIIEQHINEPEKMLAALKVFVQPMKAATRS [G211E]	–	–	–	3 kcal/mol/M and 1.5 kcal/mol/M	2.73 M and 3.72 M	8.1 kcal/mol and 5.5 kcal/mol
MERYESLFAQLKERKEGAFVPFVTLGDPGIEQSLKIIDTLIEAGADALELGIPFSDPLADGPTIQNATLRAFAAGVTPAQCFEMLALIRQKHPTIPIGLLMYANLVFNKGIDEFYAQCEKVGVDSVLVADVPVEESAPFRQAALRHNVAPIFICPPNADDDLLRQIASYGRGYTYLLSRAGVTGAENRAALPLNHLVAKLKEYNAAPPLQVFGISAPDQVKAAIDAGAAGAISGSAIVKIIEQHINEPEKMLAALKVFVQPMKAATRS [G211V]	–	–	–	1.9 kcal/mol/M and 1.6 kcal/mol/M	2.78 M and 4.3 M	5.4 kcal/mol and 6.9 kcal/mol
